Experimental data published in patent US9327008B2, “Cell-permeant peptide-based inhibitor of kinases” (Purdue Research Foundation, priority 2008, dated 2016).

Columns and labels:
Type in all cases: biochemical
PRAK = molecular target: T1, PRAK (Homo sapiens, UniProt Q8IW41); assay: Millipore radiometric kinase activity assay, PRAK (h); conditions: SD of 2 samples
T1 construct: purchased Millipore (assay service)
T1 sequence (Q8IW41 1-473): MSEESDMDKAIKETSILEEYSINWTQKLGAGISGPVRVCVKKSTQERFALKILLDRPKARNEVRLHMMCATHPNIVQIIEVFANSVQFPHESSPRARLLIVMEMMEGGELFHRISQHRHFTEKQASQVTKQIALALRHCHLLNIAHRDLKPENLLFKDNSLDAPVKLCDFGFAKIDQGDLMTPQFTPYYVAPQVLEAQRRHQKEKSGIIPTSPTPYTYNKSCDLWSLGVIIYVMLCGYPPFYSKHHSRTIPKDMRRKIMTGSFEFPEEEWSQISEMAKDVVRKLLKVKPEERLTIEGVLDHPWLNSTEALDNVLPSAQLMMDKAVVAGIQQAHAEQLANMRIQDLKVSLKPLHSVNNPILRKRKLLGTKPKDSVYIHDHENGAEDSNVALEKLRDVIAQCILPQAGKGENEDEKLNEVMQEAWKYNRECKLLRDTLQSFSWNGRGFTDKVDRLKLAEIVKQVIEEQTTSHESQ
Experimental: (§1) A commercial radiometric assay service (Millipore, Billerica, Mass.) was used to test the specificity and potency of peptides containing a coupled transduction domain and therapeutic domain, hereinafter “complete peptides”). In these assays, if the kinase is not inhibited by an inhibitor peptide, a positively charged substrate is phosphorylated with a radiolabeled phosphate group from an ATP.
In a final reaction volume of 25 μL, PRAK (h) (5-10 mU) is incubated with 50 mM Naβ-glycerophosphate pH 7.5, 0.1 mM EGTA, 30 μM […] [SEQ ID NO: 65], 10 mM MgAcetate and [γ-^33P-ATP] (specific activity approx. 500 cpm/pmol, concentration as required). The reaction is initiated by the addition of the MgATP mix. After incubation for 40 minutes at room temperature, the reaction is stopped by the addition of 5 μL of a 3% phosphoric acid solution. 10 μL of the reaction is then spotted onto a P30 filtermat and washed three times for 5 minutes in 50 mM phosphoric acid and once in methanol prior to drying and scintillation counting.
(§2) IC50 values for inhibitor peptides were determined using Millipore's IC50Profiler Express service. The IC50 value was estimated from a 10-point curve of one-half log dilutions. For peptides tested for specificity, the concentration of the peptides that inhibited approximately 95% of MK2 activity was chosen to profile against a battery of kinases related to MK2, cell viability, or human disease from MilliporeKinaseProfiler service. In both assays, compounds were supplied in dimethylsulfoxide (DMSO). Every kinase activity measurement was conducted in duplicate.
(§3) Additional therapeutic inhibitor peptide variants were assayed for activity against several human kinases representative of several families of kinases. These kinases included: MK2; MK3; CaMKI (calcium/calmodulin-dependent protein kinase); PRAK (p38 regulated/activated protein kinase, also known as mitogen-activated protein kinase activated protein kinase 5 (MAPKAPK5)); SAPK2a (p38α); IRAK4 (IL-1 receptor (IL-1R)-associated kinase); MLCK (myosin light chain kinase); PKBβ (protein kinase B); PCKδ (protein kinase C); and ROCK-I (Rho-associated serine/threonine kinase).

CaMKI = molecular target: T2, CaMKI (Homo sapiens, UniProt Q14012); assay: Millipore radiometric kinase activity assay, CaMKI (h); conditions: for CaMK1 Kinase Activity: peptide inhibitor 300 μM, SD of 2 samples
T2 construct: purchased Millipore (assay service)
Experimental: as §1
(§4) In a final reaction volume of 25 μL, CaMKI (h) (5-10 mU) is incubated with 8 mM MOPS pH 7.0, 0.2 mM EDTA, 0.5 mM CaCl2, 16 μg/mL calmodulin, 250 μM […] [SEQ ID NO: 52], 10 mM MgAcetate and [γ-^33P-ATP] (specific activity approx. 500 cpm/pmol, concentration as required). The reaction is initiated by the addition of the MgATP mix. After incubation for 40 minutes at room temperature, the reaction is stopped by the addition of 5 μL of a 3% phosphoric acid solution. 10 μL of the reaction is then spotted onto a P30 filtermat and washed three times for 5 minutes in 75 mM phosphoric acid and once in methanol prior to drying and scintillation counting.
as §2
(§5) Therapeutic inhibitor peptides were assayed for activity against human kinases related to MK2, cell viability, or human disease. The assays were performed using concentrations of therapeutic inhibitor peptides that yielded 2% to 8% of normal MK2 activity. Error is reported as the standard deviation between 2 samples, and “c” is rat AMPK whereas all other kinases used are human kinases.
as §3

MLCK = molecular target: T3, MLCK (Homo sapiens, UniProt Q9H1R3); assay: Millipore radiometric kinase activity assay, MLCK (h); conditions: for MLCK Kinase Activity: peptide inhibitor 300 μM, SD of 2 samples
T3 construct: purchased Millipore (radiometric assay service)
Experimental: as §1
as §4, with “MLCK” for “CaMKI”
as §2, §5, §3

PKBβ = molecular target: T4, PKBβ (Homo sapiens, UniProt P31751); assay: Millipore radiometric kinase activity assay, PKBβ (h); conditions: for PKBβ Kinase Activity: peptide inhibitor 300 μM, SD of 2 samples
T4 construct: purchased Millipore (radiometric assay service)
Experimental: as §1
In a final reaction volume of 25 μL, […] (5-10 mU) is incubated with 8 mM MOPS pH 7.0, 0.2 mM EDTA, 30 μM […] [SEQ ID NO: 60], 10 mM MgAcetate and ['y-^33P-ATP] (specific activity approx. 500 cpm/pmol, concentration as required). The reaction is initiated by the addition of the MgATP mix. After incubation for 40 minutes at room temperature, the reaction is stopped by the addition of 5 μL it of a 3% phosphoric acid solution. 10 μL of the reaction is then spotted onto a P30 filtermat and washed three times for 5 minutes in 75 mM phosphoric acid and once in methanol prior to drying and scintillation counting.
as §2, §5, §3

MK2 = MK2 (Homo sapiens, UniProt P49137); assay: Millipore radiometric IC50 and kinase activity assay, MK2; design: purchased Millipore (assay service); conditions: for MK2 Kinase Activity: SD of 2 samples
Experimental: as §1, §2, §5, §3

[1] = peptide 100 μM, listed as KAFAKLAARLYRLARQLGVAA
[2] = peptide 30 μM, listed as WLRRIKAWLRRI-

T4 sequence (P31751 whole entry): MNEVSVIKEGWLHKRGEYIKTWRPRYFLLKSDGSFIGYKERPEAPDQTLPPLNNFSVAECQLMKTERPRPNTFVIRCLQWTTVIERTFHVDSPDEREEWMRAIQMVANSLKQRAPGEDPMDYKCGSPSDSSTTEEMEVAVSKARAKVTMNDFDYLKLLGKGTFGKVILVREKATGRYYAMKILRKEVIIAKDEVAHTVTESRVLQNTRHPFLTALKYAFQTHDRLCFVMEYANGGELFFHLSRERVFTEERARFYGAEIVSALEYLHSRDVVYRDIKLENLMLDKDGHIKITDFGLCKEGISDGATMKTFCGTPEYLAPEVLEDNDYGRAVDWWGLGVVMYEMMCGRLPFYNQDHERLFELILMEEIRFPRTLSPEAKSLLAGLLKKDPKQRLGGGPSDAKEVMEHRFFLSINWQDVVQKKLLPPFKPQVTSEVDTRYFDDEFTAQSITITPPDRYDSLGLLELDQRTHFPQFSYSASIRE
MK2, sequence (P49137 whole entry): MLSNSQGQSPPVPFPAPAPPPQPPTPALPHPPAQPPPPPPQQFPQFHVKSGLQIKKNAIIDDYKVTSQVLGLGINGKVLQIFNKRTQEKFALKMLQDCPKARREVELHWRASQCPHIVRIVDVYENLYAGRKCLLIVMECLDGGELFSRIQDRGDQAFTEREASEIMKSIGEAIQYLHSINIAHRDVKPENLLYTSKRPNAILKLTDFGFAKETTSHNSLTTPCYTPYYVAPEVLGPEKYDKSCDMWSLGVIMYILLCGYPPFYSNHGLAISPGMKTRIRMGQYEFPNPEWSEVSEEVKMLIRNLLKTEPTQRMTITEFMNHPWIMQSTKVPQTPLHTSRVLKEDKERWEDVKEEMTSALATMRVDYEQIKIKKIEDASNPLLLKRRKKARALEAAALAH

Sequence	PRAK Kinase Activity (PRAK; peptide inhibitor 100 μM)	CaMKI Kinase Activity (%) (+SD %) (CaMKI; peptide 100 μM)	MLCK Kinase Activity (%) (+SD %) (MLCK; peptide 100 μM)	PKBβ Kinase Activity (%) (+SD %) (PKBβ; peptide 100 μM)	MK2 Kinase Activity (MK2; peptide inhibitor 100 μM)	PRAK Kinase Activity (PRAK; peptide inhibitor 300 μM)	CaMK1 Kinase Activity (CaMKI)	MLCK Kinase Activity (MLCK)	PKBβ Kinase Activity (PKBβ)	MK2 Kinase Activity (MK2; peptide inhibitor 300 μM)	other results
KAFAKLAARLYRKALARQLGVAA	148(4) %	0 (2) %	2 (0) %	28 (4) %	8(1) %	–	–	–	–	–	CaMKI Kinase Activity (%) (+SD %) (CaMKI; [1]): 0(2) %; MLCK Kinase Activity (%) (+SD %) (MLCK; [1]): 2(0) %; PKBβ Kinase Activity (%) (+SD %) (PKBβ; [1]): 28(4) %
WLRRIKAWLRRIKALNRQLGVAA	–	0 (2) %	1 (1) %	16 (5) %	–	–	–	–	–	–	PRAK Kinase Activity (PRAK; peptide inhibitor 30 μM): 67(9) %; CaMKI Kinase Activity (%) (+SD %) (CaMKI; peptide 30 μM): 9(1) %; CaMKI Kinase Activity (%) (+SD %) (CaMKI; [2]): 9 (1) %; MLCK Kinase Activity (%) (+SD %) (MLCK; peptide 30 μM): 4(1) %; MLCK Kinase Activity (%) (+SD %) (MLCK; [2]): 4 (1) %; PKBβ Kinase Activity (%) (+SD %) (PKBβ; peptide 30 μM): 18(2) %; PKBβ Kinase Activity (%) (+SD %) (PKBβ; [2]): 18 (2) %; MK2 Kinase Activity (MK2; peptide inhibitor 30 μM): 2(1) %; fold lower IC50 than the therapeutic inhibitor peptide incorporating PTD YARAAARQARA (FIG. 2) (MK2; same therapeutic domain KALNRQLGVAA): greater than 30 fold
YARAAARQARAKALNRQLGVAA	–	–	–	–	–	81(3) %	8(1) %	66(9) %	96(1) %	10(3) %	–
YARAAARQARAKALARQLGVAA	–	–	–	–	–	86(2) %	2(0) %	9(0) %	17(2) %	−7(0) %	–
FAKLAARLYRKALARQLGVAA	131(4) %	0(2) %	1(1) %	16(5) %	5(2) %	–	–	–	–	–	–
